Data taken from publication PMC11210196.

Test system: CsrA-H6 (Escherichia coli (K-12 MG1655?))
Assay: EMSA
Details: apparent Kd, EMSA: 0.08-0.2 nM RNA, 10 mM MgCl2, 100 mM KCl, 32.5 ng SUPERase In, 37 C 30 min, footprint: 2 nM RNA, 10 mM Tris-HCl pH 7.5, 10 mM MgCl2, 100 mM KCl, 40 ng …

Work on evgA 5' leader (EMSA) yielded a Kd (two shifted species) of 7 nM.

gadA 5' leader (EMSA) showed a Kd (two shifts) of 73 nM.

gadB 5' leader (EMSA) was tested, and the Kd (two shifts) was 49 nM.

In the case of gadE 5' leader (EMSA), the Kd is reported as 138 nM.

ydeO 5' leader (EMSA) was tested, and the Kd (binds both conformers) was 84 nM.
